Laboratory results from article PMC4091980.

Legend:
PH domain of AKT = PH domain of AKT (UniProt P31749); assay: SPR
PH domain of PDK1 = PH domain of PDK1 (UniProt O15530); assay: SPR
Chain of UniProt O15530 (O15530 459-550): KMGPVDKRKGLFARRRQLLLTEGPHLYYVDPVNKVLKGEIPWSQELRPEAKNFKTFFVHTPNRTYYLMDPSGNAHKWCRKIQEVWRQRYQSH

- Kd (PH domain of AKT): 37.6 nM
- Kd (PH domain of PDK1): 49.8 nM
Substance: PH domain of AKT (from UniProt P31749 5-108) (domain or fragment)
